Results published in IntAct's records for PubMed 16525023.

B1: 1-phosphatidylinositol 4,5-bisphosphate phosphodiesterase gamma-1 (Homo sapiens), P19174 (parent)
chain: MAGAASPCANGCGPGAPSDAEVLHLCRSLEVGTVMTLFYSKKSQRPERKTFQVKLETRQITWSRGADKIEGAIDIREIKEIRPGKTSRDFDRYQEDPAFRPDQSHCFVILYGMEFRLKTLSLQATSEDEVNMWIKGLTWLMEDTLQAPTPLQIERWLRKQFYSVDRNREDRISAKDLKNMLSQVNYRVPNMRFLRERLTDLEQRSGDITYGQFAQLYRSLMYSAQKTMDLPFLEASTLRAGERPELCRVSLPEFQQFLLDYQGELWAVDRLQVQEFMLSFLRDPLREIEEPYFFLDEFVTFLFSKENSVWNSQLDAVCPDTMNNPLSHYWISSSHNTYLTGDQFSSESSLEAYARCLRMGCRCIELDCWDGPDGMPVIYHGHTLTTKIKFSDVLHTIKEHAFVASEYPVILSIEDHCSIAQQRNMAQYFKKVLGDTLLTKPVEISADGLPSPNQLKRKILIKHKKLAEGSAYEEVPTSMMYSENDISNSIKNGILYLEDPVNHEWYPHYFVLTSSKIYYSEETSSDQGNEDEEEPKEVSSSTELHSNEKWFHGKLGAGRDGRHIAERLLTEYCIETGAPDGSFLVRESETFVGDYTLSFWRNGKVQHCRIHSRQDAGTPKFFLTDNLVFDSLYDLITHYQQVPLRCNEFEMRLSEPVPQTNAHESKEWYHASLTRAQAEHMLMRVPRDGAFLVRKRNEPNSYAISFRAEGKIKHCRVQQEGQTVMLGNSEFDSLVDLISYYEKHPLYRKMKLRYPINEEALEKIGTAEPDYGALYEGRNPGFYVEANPMPTFKCAVKALFDYKAQREDELTFIKSAIIQNVEKQEGGWWRGDYGGKKQLWFPSNYVEEMVNPVALEPEREHLDENSPLGDLLRGVLDVPACQIAIRPEGKNNRLFVFSISMASVAHWSLDVAADSQEELQDWVKKIREVAQTADARLTEGKIMERRKKIALELSELVVYCRPVPFDEEKIGTERACYRDMSSFPETKAEKYVNKAKGKKFLQYNRLQLSRIYPKGQRLDSSNYDPLPMWICGSQLVALNFQTPDKPMQMNQALFMTGRHCGYVLQPSTMRDEAFDPFDKSSLRGLEPCAISIEVLGARHLPKNGRGIVCPFVEIEVAGAEYDSTKQKTEFVVDNGLNPVWPAKPFHFQISNPEFAFLRFVVYEEDMFSDQNFLAQATFPVKGLKTGYRAVPLKNNYSEDLELASLLIKIDIFPAKENGDLSPFSGTSLRERGSDASGQLFHGRAREGSFESRYQQPFEDFRISQEHLADHFDSRERRAPRRTRVNGDNRL

Variants of: B1
Settings: with akt1_human AKT1, P31749
Sequence of akt1_human AKT1, P31749 (P31749 whole entry): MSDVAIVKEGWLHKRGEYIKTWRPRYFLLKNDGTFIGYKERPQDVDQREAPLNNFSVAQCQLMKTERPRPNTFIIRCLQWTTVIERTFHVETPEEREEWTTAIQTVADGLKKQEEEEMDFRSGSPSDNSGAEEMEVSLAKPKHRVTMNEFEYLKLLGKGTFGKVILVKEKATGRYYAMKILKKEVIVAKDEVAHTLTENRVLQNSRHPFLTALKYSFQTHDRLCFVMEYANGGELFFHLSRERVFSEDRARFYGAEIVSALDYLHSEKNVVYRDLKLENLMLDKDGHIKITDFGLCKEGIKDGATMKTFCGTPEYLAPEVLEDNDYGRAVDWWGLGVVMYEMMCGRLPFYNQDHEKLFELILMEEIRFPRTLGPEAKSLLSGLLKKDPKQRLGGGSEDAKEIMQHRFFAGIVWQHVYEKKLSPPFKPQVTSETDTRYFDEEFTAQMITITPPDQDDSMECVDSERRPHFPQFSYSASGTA

effect of a mutation on the interaction | Variant
decreasing interaction | Y771F
disrupting interaction | Y783F
